Laboratory results: paper PMC7619307, “The Golgi vesicle tether p115 can bind directly to the ER exit site organiser Sec16A” (Journal of cell science, 2026)

Biological target: T1, FLAG-tagged p115 head domain (1–655) (human, UniProt O60763 1-655)
T1 sequence (looked up): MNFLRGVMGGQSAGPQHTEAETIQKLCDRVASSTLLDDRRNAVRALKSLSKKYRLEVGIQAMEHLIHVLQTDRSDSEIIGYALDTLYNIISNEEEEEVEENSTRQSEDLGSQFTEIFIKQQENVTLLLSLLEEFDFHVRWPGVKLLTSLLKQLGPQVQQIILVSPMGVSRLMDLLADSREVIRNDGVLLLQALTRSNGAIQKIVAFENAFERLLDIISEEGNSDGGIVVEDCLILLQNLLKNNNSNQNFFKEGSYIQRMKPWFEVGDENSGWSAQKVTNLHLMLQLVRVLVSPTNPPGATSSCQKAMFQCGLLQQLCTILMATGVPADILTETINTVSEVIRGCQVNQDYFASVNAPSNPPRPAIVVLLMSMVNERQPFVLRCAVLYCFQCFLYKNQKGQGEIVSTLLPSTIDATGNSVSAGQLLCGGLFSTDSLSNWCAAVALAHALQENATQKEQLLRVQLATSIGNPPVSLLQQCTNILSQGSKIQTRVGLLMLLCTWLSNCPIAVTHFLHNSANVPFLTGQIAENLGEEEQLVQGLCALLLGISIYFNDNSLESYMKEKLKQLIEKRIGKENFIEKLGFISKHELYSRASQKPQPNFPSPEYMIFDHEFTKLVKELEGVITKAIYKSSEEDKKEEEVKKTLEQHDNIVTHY
Assay: pull-down; direct binding assay: FLAG-tagged protein eluted from anti-FLAG beads (1 M NaCl wash, 3×FLAG peptide) was incubated for 1 h at 4°C with GFP-tagged protein held on GFP-Trap beads after harsh washes (1% SDS; 1 M NaCl, 1% Triton X-100); washes with 300 mM NaCl; immunoblot
Details: both partners purified

B1: Sec16A (650–776)–GFP (domain or fragment, human, UniProt O15027 650-776, looked up)
chain: ALPDASPGNLEQPPDNMETLCAPQVCPLPLNSTTEAVHMLPHAGAPPLDTVYPAPEKRPSARTQGPVKCESPATTLWAQSELPDFGGNVLLAPAAPALYVCAKPQPPVVQPPEEAMSGQQSRNPSSA
notes: source: HEK293T, transfected, in lysate (co-precipitation); not shown: GFP, C-terminal, kept
binding result: binds
